Measurements from article PMC2861366.
Blank lines part the entries; values can stand above or below the substance they belong to.

Key:
Test in all cases: ITC
[1] = target: P15, SSB C-terminal 15-mer peptide (UniProt P0AGE0)
[2] = target: P9, SSB C-terminal 9-mer peptide (UniProt P0AGE0)
[3] = target: SSB tetramer-(dT)70 1:1 complex (fully wrapped (SSB)65-like) (UniProt P0AGE0)
[4] = target: SSB tetramer-(dT)70 1:1 complex (fully wrapped (SSB)65-like) (UniProt P0AGE0); conditions: pH 8.1, 25 °C, 20 mM NaCl, buffer H: 10 mM Hepes
[5] = target: SSB (single-stranded DNA binding protein), full length (UniProt P0AGE0); conditions: pH 7.0, 25 °C, 0.2 M NaCl, buffer C: 10 mM cacodylate
[6] = pH 7.0, 25 °C, 20 mM NaCl, buffer C: 10 mM cacodylate, pH 7.0
[7] = pH 7.0, 25 °C, 200 mM NaCl, buffer C: 10 mM cacodylate, pH 7.0
[8] = pH 7.5, 25 °C, 20 mM NaCl, buffer T: 10 mM Tris, pH 7.5
[9] = pH 7.0, 25 °C, 0.2 M NaCl, buffer C: 10 mM cacodylate
[10] = pH 7.5, 25 °C, 0.2 M NaCl, buffer T: 10 mM Tris
[11] = pH 7.5, 25 °C, 20 mM NaCl, buffer T: 10 mM Tris

P9, SSB C-terminal 9-mer peptide, sequence (P0AGE0 whole entry, looked up, tested part not stated): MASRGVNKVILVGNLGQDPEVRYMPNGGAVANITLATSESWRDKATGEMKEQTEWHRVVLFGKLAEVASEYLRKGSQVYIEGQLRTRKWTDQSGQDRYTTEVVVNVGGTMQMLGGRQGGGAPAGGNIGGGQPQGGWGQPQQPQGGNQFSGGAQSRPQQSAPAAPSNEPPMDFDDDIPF
SSB tetramer-(dT)70 1:1 complex (fully wrapped (SSB)65-like), sequence (P0AGE0 whole entry, one chain of several): as the sequence (P0AGE0 whole entry, looked up, tested part not stated) above
SSB (single-stranded DNA binding protein), full length, sequence (P0AGE0 whole entry): as the sequence (P0AGE0 whole entry, looked up, tested part not stated) above

- protons absorbed on complex formation ([1]; pH 7.0-7.5, 25 °C, 20 mM NaCl, buffer T: 10 mM Tris, pH 7.5): 1 protons
- K (observed association constant) [1, 6]: 2.7e+06 M⁻¹
- ΔH (observed) [1, 6]: -20.7 kcal/mol
- K (observed association constant) [1, 7]: 360000 M⁻¹
- K (observed association constant) [1, 8]: 1.6e+06 M⁻¹
- ΔH (observed) [1, 8]: -7 kcal/mol
- K (observed association constant) [2, 7]: 180000 M⁻¹
- K (observed association constant) [2, 8]: 2e+06 M⁻¹
- ΔH (observed) [2, 8]: -6.7 kcal/mol
- Kobs [3, 9]: (3.7±0.5)×10^6 M^−1
- ΔHobs [3, 9]: -18.3 kcal/mol
- Kobs [3, 10]: (1.9±0.5)×10^6 M^−1
- ΔHobs [3, 10]: -8.6 kcal/mol
Substance: PriA helicase (primosomal protein N')

- Kobs [4]: (3.8±0.4)×10^6 M^−1
- K (observed association constant) [1, 6]: 1.5e+06 M⁻¹
- ΔH (observed) [1, 6]: -9.5 kcal/mol
- ΔH (observed) [1, 11]: -7.7 kcal/mol
- K (observed association constant) [1, 8]: 800000 M⁻¹
- K (observed association constant) [2, 6]: 1.6e+06 M⁻¹
- ΔH (observed) [2, 6]: -7.9 kcal/mol
- ΔH (observed) [2, 11]: -8.2 kcal/mol
- K (observed association constant) [2, 8]: 800000 M⁻¹
- Kobs [5]: (3.0±0.7)×10^5 M^−1
- Kobs [3, 9]: (5.4±1.0)×10^5 M^−1
- Kobs [3, 6]: (7.6±1.6)×10^6 M^−1
- ΔHobs [3, 6]: -8.7 kcal/mol
- Kobs ([3]; pH 8.1, 25 °C, 20 mM NaCl, buffer H: 10 mM Hepes): (5.5±0.8)×10^6 M^−1
- ΔHobs ([3]; pH 8.1, 25 °C, 20 mM NaCl, buffer H: 10 mM Hepes, pH 8.1): -8.9 kcal/mol
Substance: χ (chi) subunit of DNA polymerase III holoenzyme (HolC)
